Measurements published in IntAct's records for PubMed 20881132.

Target: sgg_drome sgg (UniProt P18431)
UniProt P18431, sequence (P18431 whole entry): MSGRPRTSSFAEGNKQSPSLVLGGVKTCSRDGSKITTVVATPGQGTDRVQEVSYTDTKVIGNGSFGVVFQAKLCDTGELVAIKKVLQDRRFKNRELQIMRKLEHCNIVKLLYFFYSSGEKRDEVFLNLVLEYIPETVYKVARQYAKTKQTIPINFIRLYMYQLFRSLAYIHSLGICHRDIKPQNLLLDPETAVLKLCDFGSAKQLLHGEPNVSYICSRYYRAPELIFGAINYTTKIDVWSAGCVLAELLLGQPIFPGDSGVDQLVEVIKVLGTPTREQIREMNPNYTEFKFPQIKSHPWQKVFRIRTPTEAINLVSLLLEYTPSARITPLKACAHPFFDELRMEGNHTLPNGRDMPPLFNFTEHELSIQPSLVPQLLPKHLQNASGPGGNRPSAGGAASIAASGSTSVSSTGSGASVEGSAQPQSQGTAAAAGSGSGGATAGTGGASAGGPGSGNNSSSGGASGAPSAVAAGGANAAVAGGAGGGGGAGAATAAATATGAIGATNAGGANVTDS

effect of a mutation on the interaction: increasing interaction
Substance: Leucine-rich repeat serine/threonine-protein kinase 2 (Homo sapiens), Q5S007 G2019S
